Measurements as given in patent publication US20250163127A1.
Read-outs that look alike come from different tables or passages of the source. Values belong to the substance of their own block, whether it stands above or below them.

What was measured:
CD112R (human) [1] = target: CD112R (human) (UniProt Q6DKI7); assay: flow cytometry, transfected HEK293; secondary reagent alone
CD226 (human) [2] = target: T1, CD226 (human) (UniProt Q15762); assay: as above
T1 sequence: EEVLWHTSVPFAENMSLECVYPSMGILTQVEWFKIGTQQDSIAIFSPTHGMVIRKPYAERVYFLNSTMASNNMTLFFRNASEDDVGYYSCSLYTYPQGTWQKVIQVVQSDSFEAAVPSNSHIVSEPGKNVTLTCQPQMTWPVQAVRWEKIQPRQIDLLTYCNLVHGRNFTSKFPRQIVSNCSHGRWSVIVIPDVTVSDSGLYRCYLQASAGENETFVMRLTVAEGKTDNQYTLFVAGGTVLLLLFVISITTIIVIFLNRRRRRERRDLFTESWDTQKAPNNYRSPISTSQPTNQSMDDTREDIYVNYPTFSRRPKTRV

CD96 (human) [3] = target: T2, CD96 (human) (UniProt P40200); assay: as above
T2 sequence: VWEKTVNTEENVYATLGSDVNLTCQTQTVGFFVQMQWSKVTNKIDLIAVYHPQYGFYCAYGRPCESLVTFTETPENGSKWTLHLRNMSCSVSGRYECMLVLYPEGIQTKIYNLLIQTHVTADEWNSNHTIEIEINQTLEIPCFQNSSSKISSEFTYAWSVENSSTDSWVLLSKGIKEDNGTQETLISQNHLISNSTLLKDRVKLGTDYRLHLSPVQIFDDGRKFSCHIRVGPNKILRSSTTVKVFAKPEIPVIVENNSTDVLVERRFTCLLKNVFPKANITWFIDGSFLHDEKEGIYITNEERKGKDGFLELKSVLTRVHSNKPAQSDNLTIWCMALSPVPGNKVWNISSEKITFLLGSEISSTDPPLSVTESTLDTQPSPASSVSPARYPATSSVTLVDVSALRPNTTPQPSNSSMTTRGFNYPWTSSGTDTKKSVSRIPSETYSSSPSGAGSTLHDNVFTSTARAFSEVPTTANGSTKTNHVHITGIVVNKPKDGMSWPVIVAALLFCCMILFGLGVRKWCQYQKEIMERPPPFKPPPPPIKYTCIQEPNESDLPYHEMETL

TIGIT (human) [4] = target: T3, TIGIT (human) (UniProt Q495A1); assay: as above
T3 sequence: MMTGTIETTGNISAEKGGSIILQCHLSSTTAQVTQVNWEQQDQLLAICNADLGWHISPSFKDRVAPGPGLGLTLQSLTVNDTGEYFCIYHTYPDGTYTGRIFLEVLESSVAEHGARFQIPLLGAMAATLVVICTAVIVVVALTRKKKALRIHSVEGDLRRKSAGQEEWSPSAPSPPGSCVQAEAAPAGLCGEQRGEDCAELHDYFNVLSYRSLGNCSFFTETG

CD2 (human) [5] = target: CD2 (human) (UniProt P06729)
Target sequence in this assay (P06729 25-351): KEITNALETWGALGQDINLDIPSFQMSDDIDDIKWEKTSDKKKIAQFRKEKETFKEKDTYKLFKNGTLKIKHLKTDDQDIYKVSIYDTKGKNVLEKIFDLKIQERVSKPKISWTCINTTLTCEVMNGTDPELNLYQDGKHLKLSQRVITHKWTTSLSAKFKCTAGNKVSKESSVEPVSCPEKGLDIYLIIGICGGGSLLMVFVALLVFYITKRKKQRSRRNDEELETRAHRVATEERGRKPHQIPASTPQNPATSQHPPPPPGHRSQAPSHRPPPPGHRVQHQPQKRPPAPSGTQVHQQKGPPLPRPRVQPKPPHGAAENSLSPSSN

CD2 (human) [6] = target: CD2 (human) (UniProt P06729); assay: flow cytometry, CHO-CD2 cells
Target sequence in this assay (P06729 25-351 limits assumed): as the sequence (P06729 25-351) above

CD96 (human) [7] = target: T2, CD96 (human); assay: flow cytometry on transfected HEK293 cells, 100 nM
TIGIT (human) [8] = target: T3, TIGIT (human); assay: flow cytometry on transfected HEK293 cells, 100 nM
CD112R (human) [9] = target: CD112R (human) (UniProt Q6DKI7); assay: flow cytometry, transfected HEK293
CD226 (human) [10] = target: T1, CD226 (human); assay: flow cytometry, transfected HEK293
CD96 (human) [11] = target: T2, CD96 (human); assay: flow cytometry, transfected HEK293
TIGIT (human) [12] = target: T3, TIGIT (human); assay: flow cytometry, transfected HEK293
CD112R (human) [13] = target: CD112R (human) (UniProt Q6DKI7); assay: flow cytometry, Fc fusion on Expi293 cells transfected with full-length human CD112R
CD226 (human) [14] = target: T1, CD226 (human); assay: flow cytometry, Fc fusion on Expi293 cells transfected with full-length human CD226
TIGIT (human) [15] = target: T3, TIGIT (human); assay: flow cytometry, Fc fusion on Expi293 cells transfected with full-length human TIGIT
TIGIT (human) [16] = target: T3, TIGIT (human); assay: flow cytometry, TIGIT-transfected Expi293 cells
CD96 (human) [17] = target: T2, CD96 (human); assay: flow cytometry, CD96-transfected Expi293 cells
CD226 (human) [18] = target: T1, CD226 (human); assay: flow cytometry, CD226-transfected Expi293 cells
CD96 (human) [19] = target: T2, CD96 (human); assay: flow cytometry, CD96-transfected Expi293 cells; ratio to wild-type CD155
human PD-1 (human) = human PD-1 (human) (UniProt Q15116); assay: flow cytometry, cells expressing PD-1, 20 nM
CD80 (human) = assay: flow cytometry, cells expressing CD80, 20 nM
CTLA-4 (human) = assay: flow cytometry on HEK293 cells transfected with CTLA4; Fc control
PD-L1 (human) = assay: flow cytometry on HEK293 cells transfected with PD-L1; Fc control
CD28 (human) [20] = target: CD28 (human) (UniProt P10747); assay: flow cytometry on HEK293 cells transfected with CD28; Fc control
[21] = target: CD28, full-length, expressed on transfected cells (Homo sapiens (Human)) (UniProt P10747); assay: flow cytometry, cells expressing target
[22] = target: ICOS, full-length, expressed on transfected cells (Homo sapiens (Human)) (UniProt Q9Y6W8); assay: flow cytometry, cells expressing target
[23] = target: CTLA-4, full-length, expressed on transfected cells (Homo sapiens (Human)) (UniProt P16410); assay: flow cytometry, cells expressing target
CD28 (human) [24] = target: CD28 (human) (UniProt P10747); assay: flow cytometry, transfected cells
[25] = target: ICOS as used in the OD read-out of Table E15A (Homo sapiens (Human)) (UniProt Q9Y6W8); assay: OD read-out, format not told
CD28 (human) [26] = target: CD28 (human) (UniProt P10747); assay: flow cytometry, transfected cells; remark: listed apart in the source

Chain of CD112R (human) (Q6DKI7 whole entry, the tested form may be a part): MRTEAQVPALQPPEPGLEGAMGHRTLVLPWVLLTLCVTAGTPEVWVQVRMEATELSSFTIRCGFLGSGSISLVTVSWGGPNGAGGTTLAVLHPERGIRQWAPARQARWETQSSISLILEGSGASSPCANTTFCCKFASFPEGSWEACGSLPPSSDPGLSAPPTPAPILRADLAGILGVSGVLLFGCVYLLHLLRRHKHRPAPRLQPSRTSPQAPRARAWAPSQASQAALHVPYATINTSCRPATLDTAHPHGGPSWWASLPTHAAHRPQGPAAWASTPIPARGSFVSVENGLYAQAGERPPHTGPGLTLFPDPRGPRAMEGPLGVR
Chain of CTLA-4, full-length, expressed on transfected cells (Homo sapiens (Human)) (P16410 36-223): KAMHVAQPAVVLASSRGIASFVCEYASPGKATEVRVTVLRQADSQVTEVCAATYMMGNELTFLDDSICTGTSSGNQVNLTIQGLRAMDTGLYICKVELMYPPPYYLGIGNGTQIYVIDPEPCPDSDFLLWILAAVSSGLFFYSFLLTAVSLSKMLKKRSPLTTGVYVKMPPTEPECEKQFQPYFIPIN
Chain of CD112 ECD-Fc (Fc fusion) (chain): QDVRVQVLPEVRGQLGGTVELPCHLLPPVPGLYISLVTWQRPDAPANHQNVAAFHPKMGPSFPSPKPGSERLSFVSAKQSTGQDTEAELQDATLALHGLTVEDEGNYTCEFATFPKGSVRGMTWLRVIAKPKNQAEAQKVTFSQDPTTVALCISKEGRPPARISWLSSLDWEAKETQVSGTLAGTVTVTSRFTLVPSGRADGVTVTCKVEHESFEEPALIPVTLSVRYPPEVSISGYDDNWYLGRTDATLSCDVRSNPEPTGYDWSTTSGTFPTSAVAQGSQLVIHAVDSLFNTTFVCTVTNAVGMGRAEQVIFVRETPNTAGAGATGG
Chain of ICOS, full-length, expressed on transfected cells (Homo sapiens (Human)) (Q9Y6W8 21-199 limits assumed): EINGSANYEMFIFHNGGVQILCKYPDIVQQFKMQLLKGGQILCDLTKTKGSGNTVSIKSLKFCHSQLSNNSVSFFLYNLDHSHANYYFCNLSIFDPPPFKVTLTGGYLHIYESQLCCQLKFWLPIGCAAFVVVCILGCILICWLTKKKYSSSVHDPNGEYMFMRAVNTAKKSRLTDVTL

Substance: CD58 (WT) 3650-Fc (Fc fusion)
- 100 nM IFN-gamma (pg/mL), SEB assay (CD2 (human) [5]): 9660 pg/mL
- EC50 (CD2 (human) [6]): 0.2 nM

Substance: CD112 ECD-Fc (Fc fusion)
- MFI at 100 nM (CD96 (human) [7]): 1100 MFI
- MFI at 100 nM (TIGIT (human) [8]): 29200 MFI

Substance: CD112 N106Y, A112V (Fc fusion)
- MFI (CD112R (human) [13]): 1970 MFI
- MFI parental ratio (parental ratio) (CD112R (human) [13]): 1.36
- MFI (CD226 (human) [14]): 15300 MFI
- MFI parental ratio (parental ratio) (CD226 (human) [14]): 0.06
- MFI (TIGIT (human) [15]): 6040 MFI

Substance: CD112 Y33H, A112V (Fc fusion)
- MFI (CD226 (human) [14]): 231000 MFI
- MFI (TIGIT (human) [15]): 99000 MFI

Substance: CD155 IgV-Fc P18L, L79V, F91S (Fc fusion)
- MFI (CD226 (human) [18]): 5140
- MFI parental ratio (CD96 (human) [19]): 1.1
- MFI (TIGIT (human) [16]): 4070
- MFI (CD96 (human) [17]): 3280

Substance: CD155 IgV-Fc P18T, F91S, R94H (Fc fusion)
- MFI (CD226 (human) [18]): 3590
- MFI parental ratio (CD96 (human) [19]): 0.8
- MFI (TIGIT (human) [16]): 2940
- MFI (CD96 (human) [17]): 2510

Substance: ICOSL ECD-Fc F138L/L203P (Fc fusion)
- MFI [21]: 1510 MFI
- MFI [22]: 53800 MFI
- MFI [23]: 2150 MFI

Substance: ICOSL ECD-Fc N52H/N57Y/Q100P (Fc fusion)
- MFI [21]: 447 MFI
- parental ratio [21]: 24.8 ratio to WT
- OD [25]: 1.57 OD

Substance: ICOSL ECD-Fc N52Q/N84Q/N168Q (Fc fusion)
- MFI (CD28 (human) [26]): 1580 MFI

Substance: ICOSL ECD-Fc N52S/E220G (Fc fusion)
- MFI [23]: 1800 MFI

Now from value to substance:

- MFI at 20 nM (CD112R (human) [1]): 1010
- MFI at 20 nM (CD226 (human) [2]): 1010
- MFI at 20 nM (CD96 (human) [3]): 1060
- MFI at 20 nM (TIGIT (human) [4]): 1140
Substance: Anti-huFc PE (tool reagent)

- Fold Increase to WT IgV (CD112R (human) [9]): 0.69 fold
- MFI at 20 nM (CD112R (human) [9]): 1150
- Fold Increase to WT IgV (CD226 (human) [10]): 1.28 fold
- MFI at 20 nM (CD226 (human) [10]): 13800
- Fold Increase to WT IgV (CD96 (human) [11]): 1.25 fold
- MFI at 20 nM (CD96 (human) [11]): 3120
- Fold Increase to WT IgV (TIGIT (human) [12]): 5.09 fold
- MFI at 20 nM (TIGIT (human) [12]): 178000
Substance: CD112 IgV-Fc Y33H/A112V (Fc fusion)

- MFI (TIGIT (human) [16]): 2910
- MFI (CD96 (human) [17]): 2620
Substance: CD155 IgV-Fc A81V, L83P (Fc fusion)

- MFI at 20 nM (human PD-1 (human)): 59 MFI
- MFI at 20 nM (CD80 (human)): 132 MFI
Substance: Fc Control

- MFI at 66.6 nM (CTLA-4 (human)): 5960 MFI
- MFI at 22.2 nM (PD-L1 (human)): 4740 MFI
- MFI at 66.6 nM (CD28 (human) [20]): 2590 MFI
Substance: Fc only

- MFI (CD28 (human) [24]): 4400 MFI
Substance: ICOSL ECD-Fc N30D/K42E/N52S/H115R/F172S/N194D (Fc fusion)
